Measurements taken from US20140087995A1 (published 2014).
Numbered stars: 1 amine (or outer) side, 2 acyl side, 3 side chain; on linkers, the order of the positions; unused ones are H or OH. Bridge positions count the residues as written; N and C are the ends. Side chains are listed from the residue outwards. Ends that are not written are not given here. * marks the point of attachment. C20 diacid = O=C(O)CCCCCCCCCCCCCCCCCCC(=O)*; γGlu = O=C(O)[C@H](CCC(=O)[*:2])N[*:1]; AEEA = NCCOCCOCC(=O)O

T1: rat calcitonin receptor (rat, UniProt P32214 25-516)
T1 construct: whole, on cells; Membranes of transiently transfected BHK tk'ts 13 cells (Assay VIII); also called rCTR
T1 sequence (looked up): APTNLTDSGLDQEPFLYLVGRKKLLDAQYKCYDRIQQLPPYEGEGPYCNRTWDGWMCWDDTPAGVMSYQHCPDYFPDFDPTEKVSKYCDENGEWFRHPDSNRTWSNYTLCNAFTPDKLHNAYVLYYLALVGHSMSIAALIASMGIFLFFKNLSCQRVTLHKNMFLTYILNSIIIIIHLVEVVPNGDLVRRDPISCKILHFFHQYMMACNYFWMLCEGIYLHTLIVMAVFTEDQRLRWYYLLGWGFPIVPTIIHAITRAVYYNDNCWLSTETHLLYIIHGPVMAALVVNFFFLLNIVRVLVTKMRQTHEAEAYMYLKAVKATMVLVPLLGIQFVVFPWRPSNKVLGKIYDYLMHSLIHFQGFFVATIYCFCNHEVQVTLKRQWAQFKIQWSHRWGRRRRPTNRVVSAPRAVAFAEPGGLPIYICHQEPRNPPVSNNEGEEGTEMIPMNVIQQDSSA

T2: human calcitonin receptor (human, UniProt P30988 25-474)
T2 construct: whole, on cells; Membranes of a stably transfected BHK cell line (Assay VII); also called hCTR; hCT
T2 sequence (looked up): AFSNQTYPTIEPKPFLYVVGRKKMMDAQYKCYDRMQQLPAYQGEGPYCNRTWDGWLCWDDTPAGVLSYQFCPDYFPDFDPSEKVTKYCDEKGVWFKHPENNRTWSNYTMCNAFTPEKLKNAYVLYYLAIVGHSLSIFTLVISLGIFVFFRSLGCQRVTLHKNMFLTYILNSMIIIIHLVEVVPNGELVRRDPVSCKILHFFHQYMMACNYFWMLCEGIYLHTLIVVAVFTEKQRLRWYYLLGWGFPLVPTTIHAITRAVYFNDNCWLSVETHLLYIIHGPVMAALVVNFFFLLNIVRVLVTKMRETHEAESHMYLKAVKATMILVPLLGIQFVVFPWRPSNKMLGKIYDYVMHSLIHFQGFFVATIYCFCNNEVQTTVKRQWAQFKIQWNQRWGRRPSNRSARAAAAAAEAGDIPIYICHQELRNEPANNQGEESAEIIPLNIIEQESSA

T3: rat amylin receptor (rat calcitonin receptor + rat RAMP 3) (rat, UniProt P32214 25-516; Q9JJ73 23-147)
T3 construct: whole, on cells; Membranes of transiently transfected BHK tk'ts 13 cells (Assay VI); also called rAmylin-R; rat amylin 3(a) receptor
T3 sequence (looked up) 1: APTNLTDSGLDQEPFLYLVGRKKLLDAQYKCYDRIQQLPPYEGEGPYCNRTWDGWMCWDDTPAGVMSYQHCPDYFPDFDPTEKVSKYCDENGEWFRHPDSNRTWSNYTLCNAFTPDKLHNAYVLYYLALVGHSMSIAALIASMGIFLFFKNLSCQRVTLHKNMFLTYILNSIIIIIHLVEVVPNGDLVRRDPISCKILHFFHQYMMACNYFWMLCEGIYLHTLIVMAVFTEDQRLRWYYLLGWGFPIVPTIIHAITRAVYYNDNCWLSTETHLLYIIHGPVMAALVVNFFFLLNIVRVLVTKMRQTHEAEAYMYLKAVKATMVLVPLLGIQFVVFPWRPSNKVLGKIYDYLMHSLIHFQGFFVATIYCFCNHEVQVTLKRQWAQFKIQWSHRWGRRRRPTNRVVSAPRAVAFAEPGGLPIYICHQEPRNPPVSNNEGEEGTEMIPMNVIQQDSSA
T3 sequence (looked up) 2: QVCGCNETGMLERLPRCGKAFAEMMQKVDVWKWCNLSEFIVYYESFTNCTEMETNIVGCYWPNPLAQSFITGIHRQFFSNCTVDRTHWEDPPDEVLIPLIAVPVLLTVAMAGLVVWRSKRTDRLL


Columns and labels:
[1] = molecular target: T1, rat calcitonin receptor; assay: ratio IC50 rat calcitonin receptor / IC50 rat amylin receptor (reference)
[2] = molecular target: T1, rat calcitonin receptor; assay: SPA competition with 125I-calcitonin, membranes of BHK cells with rat calcitonin receptor (Assay VIII)
[3] = molecular target: T2, human calcitonin receptor; assay: ratio IC50 human calcitonin receptor / IC50 human amylin receptor (reference)
Procedure: The resulting pellet was resuspended, homogenized and centrifuged (20.000 rpm, 15 min) in a buffer containing 20 mM Na-HEPES and 0.1 mM EDTA (pH 7.4, buffer 2). The resulting pellet was resuspended in buffer 2 and protein concentration was measured (BCA protein Assay, Pierce). The homogenate was kept cold during the whole procedure. The membranes were kept at −80° C. until use. The assay was performed in a 384 well Optiplate (PerkinElmer) in a total volume of 40 ul. Membranes were mixed with SPA beads. Final concentration of membranes 35 ng/μL final and SPA beads was 0.05 mg/well. Test-compounds were dissolved in DMSO and further diluted in assay buffer (50 mM Hepes, pH 7.4, 1 mM CaCl2, 5 mM MgCl₂, 0.1% OA and 0.02% Tween20). […] The final mixture was incubated with shaking at 400 rpm for 120 min at 25° C. prior to centrifugation (1500 rpm, 10 min). Samples were analyzed on TopCounter™ (Packard). The IC₅₀ was calculated using (one site binding competition analysis) GraphPad Prism5 as a measure of receptor affinity.
Membranes were prepared in the following way; the cells were rinsed with PBS and incubated with Versene for approximately 5 min before harvesting. The cells were flushed with PBS and the cell-suspension was centrifuged for 5 min at 1000 rpm. Cells were homogenized (Ultrathurrax) in a buffer containing 20 mM Na-HEPES and 10 mM EDTA (pH 7.4) and centrifuged at 20.000 rpm for 15 min. The resulting pellet was resuspended, homogenized and centrifuged (20.000 rpm, 15 min) in a buffer containing 20 mM Na-HEPES and 0.1 mM EDTA (pH 7.4, buffer 2). The resulting pellet was resuspended in buffer 2 and protein concentration was measured (BCA protein Assay, Pierce). The homogenate was kept cold during the whole procedure. The membranes were kept at −80° C. until use. Assay was performed in a 384 well Optiplate (PerkinElmer) in a total volume of 40 ul. Membranes were mixed with SPA beads.

[4] = molecular target: T3, rat amylin receptor (rat calcitonin …); assay: SPA competition with 125I-rat amylin, membranes of BHK cells with rat calcitonin receptor + rat RAMP3 (Assay VI)

Row | Binder | Ratio rCT/rAmylin binding [1] | IC50 [2] [nM] | Ratio hCT/hAmylin binding [3] | IC50 [4] [nM]
1 | K([γGlu-γGlu-C20 diacid])CNTATCATQRLAEFLRHSSPNFGAIPSSTNVGHNTY-NH2 (disulfide 2-7; N-terminus assumed; SMILES CC[C@H](C)[C@H](NC(=O)[C@H](C)NC(=O)CNC(=O)[C@H](Cc1ccccc1)NC(=O)[C@H](CC(N)=O)NC(=O)[C@@H]1CCCN1C(=O)[C@H](CO)NC(=O)[C@H](CO)NC(=O)[C@H](Cc1c[nH]cn1)NC(=O)[C@H](CCCNC(=N)N)NC(=O)[C@H](CC(C)C)NC(=O)[C@H](Cc1ccccc1)NC(=O)[C@H](CCC(=O)O)NC(=O)[C@H](C)NC(=O)[C@H](CC(C)C)NC(=O)[C@H](CCCNC(=N)N)NC(=O)[C@H](CCC(N)=O)NC(=O)[C@@H](NC(=O)[C@H](C)NC(=O)[C@@H]1CSSC[C@H](NC(=O)[C@@H](N)CCCCNC(=O)CC[C@H](NC(=O)CC[C@H](NC(=O)CCCCCCCCCCCCCCCCCCC(=O)O)C(=O)O)C(=O)O)C(=O)N[C@@H](CC(N)=O)C(=O)N[C@@H]([C@@H](C)O)C(=O)N[C@@H](C)C(=O)N[C@@H]([C@@H](C)O)C(=O)N1)[C@@H](C)O)C(=O)N1CCC[C@H]1C(=O)N[C@@H](CO)C(=O)N[C@@H](CO)C(=O)N[C@H](C(=O)N[C@@H](CC(N)=O)C(=O)N[C@H](C(=O)NCC(=O)N[C@@H](Cc1c[nH]cn1)C(=O)N[C@@H](CC(N)=O)C(=O)N[C@H](C(=O)N[C@@H](Cc1ccc(O)cc1)C(N)=O)[C@@H](C)O)C(C)C)[C@@H](C)O, also called compound 87) | 45.6 | 94.5 | 35.6 | 2.07
2 | K([AEEA-C20 diacid])CNTATCATQRLANFLRHSSPNFGAIPSSTNVGHNTY-NH2 (disulfide 2-7; N-terminus assumed; SMILES CC[C@H](C)[C@H](NC(=O)[C@H](C)NC(=O)CNC(=O)[C@H](Cc1ccccc1)NC(=O)[C@H](CC(N)=O)NC(=O)[C@@H]1CCCN1C(=O)[C@H](CO)NC(=O)[C@H](CO)NC(=O)[C@H](Cc1c[nH]cn1)NC(=O)[C@H](CCCNC(=N)N)NC(=O)[C@H](CC(C)C)NC(=O)[C@H](Cc1ccccc1)NC(=O)[C@H](CC(N)=O)NC(=O)[C@H](C)NC(=O)[C@H](CC(C)C)NC(=O)[C@H](CCCNC(=N)N)NC(=O)[C@H](CCC(N)=O)NC(=O)[C@@H](NC(=O)[C@H](C)NC(=O)[C@@H]1CSSC[C@H](NC(=O)[C@@H](N)CCCCNC(=O)COCCOCCNC(=O)CCCCCCCCCCCCCCCCCCC(=O)O)C(=O)N[C@@H](CC(N)=O)C(=O)N[C@@H]([C@@H](C)O)C(=O)N[C@@H](C)C(=O)N[C@@H]([C@@H](C)O)C(=O)N1)[C@@H](C)O)C(=O)N1CCC[C@H]1C(=O)N[C@@H](CO)C(=O)N[C@@H](CO)C(=O)N[C@H](C(=O)N[C@@H](CC(N)=O)C(=O)N[C@H](C(=O)NCC(=O)N[C@@H](Cc1c[nH]cn1)C(=O)N[C@@H](CC(N)=O)C(=O)N[C@H](C(=O)N[C@@H](Cc1ccc(O)cc1)C(N)=O)[C@@H](C)O)C(C)C)[C@@H](C)O, also called compound 91) [N^ε1-[2-[2-[2-(19-carboxynonadecanoylamino)ethoxy]ethoxy]acetyl]-[Arg17,Pro21,Pro27,His34]-h-amylin] | 76.3 | 29.4 | 101 | 0.386
3 | K([AEEA-C20 diacid])CNTATCATQRLAHFLRHSSPNFGAIPSSTNVGSNTY-NH2 (disulfide 2-7; N-terminus assumed; SMILES CC[C@H](C)[C@H](NC(=O)[C@H](C)NC(=O)CNC(=O)[C@H](Cc1ccccc1)NC(=O)[C@H](CC(N)=O)NC(=O)[C@@H]1CCCN1C(=O)[C@H](CO)NC(=O)[C@H](CO)NC(=O)[C@H](Cc1c[nH]cn1)NC(=O)[C@H](CCCNC(=N)N)NC(=O)[C@H](CC(C)C)NC(=O)[C@H](Cc1ccccc1)NC(=O)[C@H](Cc1c[nH]cn1)NC(=O)[C@H](C)NC(=O)[C@H](CC(C)C)NC(=O)[C@H](CCCNC(=N)N)NC(=O)[C@H](CCC(N)=O)NC(=O)[C@@H](NC(=O)[C@H](C)NC(=O)[C@@H]1CSSC[C@H](NC(=O)[C@@H](N)CCCCNC(=O)COCCOCCNC(=O)CCCCCCCCCCCCCCCCCCC(=O)O)C(=O)N[C@@H](CC(N)=O)C(=O)N[C@@H]([C@@H](C)O)C(=O)N[C@@H](C)C(=O)N[C@@H]([C@@H](C)O)C(=O)N1)[C@@H](C)O)C(=O)N1CCC[C@H]1C(=O)N[C@@H](CO)C(=O)N[C@@H](CO)C(=O)N[C@H](C(=O)N[C@@H](CC(N)=O)C(=O)N[C@H](C(=O)NCC(=O)N[C@@H](CO)C(=O)N[C@@H](CC(N)=O)C(=O)N[C@H](C(=O)N[C@@H](Cc1ccc(O)cc1)C(N)=O)[C@@H](C)O)C(C)C)[C@@H](C)O, also called compound 90) [N^ε1-[2-[2-[2-(19-carboxynonadecanoylamino)ethoxy]ethoxy]acetyl]-[His14,Arg17,Pro21,Pro27]-h-amylin] | 74.1 | 18.2 | 42.2 | 0.246
4 | K([AEEA-AEEA-γGlu-C20 diacid])CNTATCATQRLANFLRHSSPNFGAIPSSTNVGRNTY-NH2 (disulfide 2-7; N-terminus assumed; SMILES CC[C@H](C)[C@H](NC(=O)[C@H](C)NC(=O)CNC(=O)[C@H](Cc1ccccc1)NC(=O)[C@H](CC(N)=O)NC(=O)[C@@H]1CCCN1C(=O)[C@H](CO)NC(=O)[C@H](CO)NC(=O)[C@H](Cc1c[nH]cn1)NC(=O)[C@H](CCCNC(=N)N)NC(=O)[C@H](CC(C)C)NC(=O)[C@H](Cc1ccccc1)NC(=O)[C@H](CC(N)=O)NC(=O)[C@H](C)NC(=O)[C@H](CC(C)C)NC(=O)[C@H](CCCNC(=N)N)NC(=O)[C@H](CCC(N)=O)NC(=O)[C@@H](NC(=O)[C@H](C)NC(=O)[C@@H]1CSSC[C@H](NC(=O)[C@@H](N)CCCCNC(=O)COCCOCCNC(=O)COCCOCCNC(=O)CC[C@H](NC(=O)CCCCCCCCCCCCCCCCCCC(=O)O)C(=O)O)C(=O)N[C@@H](CC(N)=O)C(=O)N[C@@H]([C@@H](C)O)C(=O)N[C@@H](C)C(=O)N[C@@H]([C@@H](C)O)C(=O)N1)[C@@H](C)O)C(=O)N1CCC[C@H]1C(=O)N[C@@H](CO)C(=O)N[C@@H](CO)C(=O)N[C@H](C(=O)N[C@@H](CC(N)=O)C(=O)N[C@H](C(=O)NCC(=O)N[C@@H](CCCNC(=N)N)C(=O)N[C@@H](CC(N)=O)C(=O)N[C@H](C(=O)N[C@@H](Cc1ccc(O)cc1)C(N)=O)[C@@H](C)O)C(C)C)[C@@H](C)O, also called compound 95) | 71.3 | 388 | 63.4 | 5.45
